Assay [1] concerns the target AjKissR2 (Apostichopus japonicus). The assay can be described thus: flow cytometry on cells. In general terms: Flow cytometry measures light scatter and fluorescence of single cells or particles in a stream.
The target of assay [2] is AjKissR1 (Apostichopus japonicus). Nature of the assay: flow cytometry on cells.

The record followed here is paper doi:10.1101/851261.

In assay [1], AjKiss1a (peptide) returned an IC50 of 95.2 nM. For AjKiss1b (peptide), the IC50 in assay [2] turned out to be 353 nM.

A word on the IC50: it is the concentration that gives 50% inhibition. Higher therefore signals a need for much substance.
